Measured values from patent US20060240001A1 (AGOURON PHARMACEUTICALS, published 2006).
Positions count from the first letter of the chain named.

B1: 194-a02 (antibody, V domains shown)
VH: not shown
VL: QSALTQPASVSGSPGQSITISCTGTSNDVGAYNYVSWYQQHPGKAPKLILSEVNKRPSGVSNRFSGSKSGNTASLSISGLQAEDEADYYCSSFTSGLPWVLFGGGTKLTVL
notes: Tested as IgG converted from scFv
B2: 195-e11 (antibody, V domains shown)
VH: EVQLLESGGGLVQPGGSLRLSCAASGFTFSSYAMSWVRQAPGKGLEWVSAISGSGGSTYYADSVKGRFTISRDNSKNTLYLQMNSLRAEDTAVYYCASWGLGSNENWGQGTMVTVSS
VL: B1 VL with L97I, P98V, W99F, V100N
B3: 194-b09 (antibody, V domains shown)
VH: not shown
VL: B1 VL with L101V
B4: 200-h06 (antibody, V domains shown)
VH: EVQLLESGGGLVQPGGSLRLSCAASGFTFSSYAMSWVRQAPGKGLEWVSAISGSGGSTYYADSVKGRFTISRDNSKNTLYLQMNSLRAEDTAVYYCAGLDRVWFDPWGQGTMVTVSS
VL: B1 VL with S91T, F93Y, T94R, S95M, G96D, L97S, P98T, W99F, V100M
B5: 196-g03 (antibody, V domains shown)
VH: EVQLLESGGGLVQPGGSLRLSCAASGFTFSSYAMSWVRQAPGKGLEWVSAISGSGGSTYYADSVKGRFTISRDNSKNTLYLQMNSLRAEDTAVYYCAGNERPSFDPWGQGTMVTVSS
VL: B1 VL with S91T, F93Y, S95M, L97S, P98T, W99F, V100M
B6: 196-d10 (antibody, V domains shown)
VH: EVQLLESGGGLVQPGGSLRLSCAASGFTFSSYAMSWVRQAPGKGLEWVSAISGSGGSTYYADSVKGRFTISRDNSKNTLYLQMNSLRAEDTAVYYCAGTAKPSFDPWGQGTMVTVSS
VL: B1 VL with S91T, F93Y, S95M, L97S, P98T, W99F, V100M
notes: Tested as IgG converted from scFv; also called 196-d10 IgG
B7: 194-g09 (antibody, V domains shown)
VH: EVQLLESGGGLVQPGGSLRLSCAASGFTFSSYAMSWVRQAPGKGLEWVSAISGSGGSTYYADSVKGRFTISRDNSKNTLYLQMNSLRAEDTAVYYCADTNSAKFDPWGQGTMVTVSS
VL: B1 VL with Q40R, D87E, F93Y, S95M, L97S, P98T, W99F, V100M
B8: 198-a09 (antibody, V domains shown)
VH: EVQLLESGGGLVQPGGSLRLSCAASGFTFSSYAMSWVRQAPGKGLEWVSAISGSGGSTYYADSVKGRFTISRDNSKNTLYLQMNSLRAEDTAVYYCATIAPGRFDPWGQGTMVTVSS
VL: B1 VL with S13P, S91T, F93Y, S95M, L97S, P98T, W99F, V100M
notes: Tested as IgG converted from scFv; also called 198-a09 IgG
B9: 196-e06 (antibody, V domains shown)
VH: EVQLLESGGGLVQPGGSLRLSCAASGFTFSSYAMSWVRQAPGKGLEWVSAISGSGGSTYYADSVKGRFAISRDNSKNTLYLQMNSLRAEDTAVYYCAGSRTVQFDPWGQGTMVTVSS
VL: B1 VL with S91T, F93Y, S95M, L97S, P98T, W99F, V100M
notes: Tested as IgG converted from scFv; also called 196-e06 IgG
B10: 194-e01 (antibody, V domains shown)
VH: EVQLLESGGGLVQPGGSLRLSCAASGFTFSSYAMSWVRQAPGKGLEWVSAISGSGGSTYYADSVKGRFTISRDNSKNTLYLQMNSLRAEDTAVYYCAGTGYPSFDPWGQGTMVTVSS
VL: B1 VL with D87G, S91T, F93Y, T94R, S95A, L97S, P98T, W99F, V100M
notes: as for B1
B11: 196-h02 (antibody, V domains shown)
VH: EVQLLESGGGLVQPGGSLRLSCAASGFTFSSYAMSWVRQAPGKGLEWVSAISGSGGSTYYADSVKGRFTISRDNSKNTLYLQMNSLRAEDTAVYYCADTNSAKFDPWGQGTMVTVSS
VL: B1 VL with S91T, F93Y, S95M, L97S, P98T, W99F, V100M
notes: Tested as IgG converted from scFv; also called 196-h02 IgG
B12: 194-e06 (antibody, V domains shown)
VH: not shown
VL: B1 VL
B13: 195-a09 (antibody, V domains shown)
VH: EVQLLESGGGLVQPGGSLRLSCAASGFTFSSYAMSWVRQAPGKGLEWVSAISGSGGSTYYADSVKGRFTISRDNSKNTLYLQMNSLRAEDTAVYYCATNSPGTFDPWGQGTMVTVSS
VL: B1 VL with S91T, F93Y, S95M, L97S, P98T, W99F, V100M
notes: Tested as IgG converted from scFv; also called 195-a09 IgG
B14: g-194-e06 (antibody, V domains shown)
VH: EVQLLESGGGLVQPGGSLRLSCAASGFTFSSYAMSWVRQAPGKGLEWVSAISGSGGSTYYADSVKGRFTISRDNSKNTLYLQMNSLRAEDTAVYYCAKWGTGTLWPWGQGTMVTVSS
VL: B1 VL with I49M, L50I, S76T
notes: Tested as IgG
B15: g-196-g03 (antibody, V domains shown)
VH: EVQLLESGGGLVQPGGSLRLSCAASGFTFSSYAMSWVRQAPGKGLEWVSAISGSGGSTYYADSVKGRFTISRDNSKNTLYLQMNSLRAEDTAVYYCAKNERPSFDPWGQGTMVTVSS
VL: B1 VL with I49M, L50I, S76T, S91T, F93Y, S95M, L97S, P98T, W99F, V100M
notes: Tested as IgG; also called germlined version of 196-g03
B16: scFv variant of 129-1c4 with VH CDR3 SEQ ID NO: 37 and VL CDR3 SEQ ID NO: 40 (scFv, V domains shown)
VH: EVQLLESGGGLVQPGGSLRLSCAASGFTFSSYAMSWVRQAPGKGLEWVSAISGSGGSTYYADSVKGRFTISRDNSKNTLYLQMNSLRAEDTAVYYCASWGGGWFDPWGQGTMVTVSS
VL: B1 VL
notes: His-tagged purified scFv; also called 37 / 40
B17: scFv variant of 129-1c4 with VH CDR3 SEQ ID NO: 37 and VL CDR3 SEQ ID NO: 287 (scFv, V domains shown)
VH: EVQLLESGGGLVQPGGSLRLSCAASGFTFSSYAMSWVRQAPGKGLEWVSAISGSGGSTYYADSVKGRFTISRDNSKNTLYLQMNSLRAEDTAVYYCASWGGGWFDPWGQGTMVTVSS
VL: B1 VL with L97I, P98K, W99F, V100T
notes: His-tagged purified scFv; also called 37 / 287
B18: scFv variant of 129-1c4 with VH CDR3 SEQ ID NO: 37 and VL CDR3 SEQ ID NO: 303 (scFv, V domains shown)
VH: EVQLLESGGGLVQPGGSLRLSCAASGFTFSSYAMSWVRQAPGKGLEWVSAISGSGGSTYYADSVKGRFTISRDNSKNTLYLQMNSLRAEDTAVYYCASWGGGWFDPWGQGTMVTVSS
VL: B1 VL with L97R, P98A, W99F, V100N
notes: His-tagged purified scFv; also called 37 / 303
B19: scFv variant of 129-1c4 with VH CDR3 SEQ ID NO: 37 and VL CDR3 SEQ ID NO: 274 (scFv, V domains shown)
VH: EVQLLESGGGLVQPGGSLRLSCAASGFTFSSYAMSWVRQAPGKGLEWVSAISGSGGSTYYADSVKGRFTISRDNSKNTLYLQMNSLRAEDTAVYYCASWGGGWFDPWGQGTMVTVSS
VL: B1 VL with S91G, S92A, F93Y, T94S, S95A, L97S, P98T, W99F, V100M
notes: His-tagged purified scFv; also called 37 / 274
B20: scFv variant of 129-1c4 with VH CDR3 SEQ ID NO: 37 and VL CDR3 SEQ ID NO: 43 (scFv, V domains shown)
VH: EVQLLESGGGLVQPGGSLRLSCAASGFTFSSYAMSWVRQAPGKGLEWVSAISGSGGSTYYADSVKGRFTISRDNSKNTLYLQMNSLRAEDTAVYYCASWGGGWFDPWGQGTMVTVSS
VL: B1 VL with S91T, F93Y, S95M, L97S, P98T, W99F, V100M
notes: His-tagged purified scFv; also called 37 / 43
B21: scFv variant of 129-1c4 with VH CDR3 SEQ ID NO: 165 and VL CDR3 SEQ ID NO: 47 (scFv, V domains shown)
VH: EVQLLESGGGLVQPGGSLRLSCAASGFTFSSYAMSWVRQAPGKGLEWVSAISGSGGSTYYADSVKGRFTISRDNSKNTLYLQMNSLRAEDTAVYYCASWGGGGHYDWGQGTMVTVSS
VL: B1 VL with L97S, P98T, W99F, V100M
notes: His-tagged purified scFv; also called 165 / 47
B22: scFv variant of 129-1c4 with VH CDR3 SEQ ID NO: 195 and VL CDR3 SEQ ID NO: 47 (scFv, V domains shown)
VH: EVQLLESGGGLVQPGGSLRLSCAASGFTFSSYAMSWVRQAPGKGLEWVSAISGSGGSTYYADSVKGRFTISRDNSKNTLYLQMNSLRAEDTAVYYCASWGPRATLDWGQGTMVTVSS
VL: B1 VL with L97S, P98T, W99F, V100M
notes: His-tagged purified scFv; also called 195 / 47
B23: scFv variant of 129-1c4 with VH CDR3 SEQ ID NO: 37 and VL CDR3 SEQ ID NO: 295 (scFv, V domains shown)
VH: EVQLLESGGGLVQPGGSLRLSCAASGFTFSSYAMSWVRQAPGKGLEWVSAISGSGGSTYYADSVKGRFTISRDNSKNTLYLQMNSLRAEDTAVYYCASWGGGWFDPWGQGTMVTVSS
VL: B1 VL with L97K, P98T, W99F
notes: His-tagged purified scFv; also called 37 / 295
B24: scFv variant of 129-1c4 with VH CDR3 SEQ ID NO: 37 and VL CDR3 SEQ ID NO: 288 (scFv, V domains shown)
VH: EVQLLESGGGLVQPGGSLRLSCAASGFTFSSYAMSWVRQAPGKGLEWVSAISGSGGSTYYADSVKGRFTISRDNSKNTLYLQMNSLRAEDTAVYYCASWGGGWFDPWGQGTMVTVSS
VL: B1 VL with G96A, L97I, V100S
notes: His-tagged purified scFv; also called 37 / 288
B25: scFv variant of 129-1c4 with VH CDR3 SEQ ID NO: 37 and VL CDR3 SEQ ID NO: 305 (scFv, V domains shown)
VH: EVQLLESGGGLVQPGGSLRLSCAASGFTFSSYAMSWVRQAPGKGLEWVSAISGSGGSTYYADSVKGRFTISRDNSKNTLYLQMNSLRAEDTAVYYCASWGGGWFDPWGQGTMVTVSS
VL: B1 VL with L97Q, P98Q
notes: His-tagged purified scFv; also called 37 / 305
B26: scFv variant of 129-1c4 with VH CDR3 SEQ ID NO: 37 and VL CDR3 SEQ ID NO: 277 (scFv, V domains shown)
VH: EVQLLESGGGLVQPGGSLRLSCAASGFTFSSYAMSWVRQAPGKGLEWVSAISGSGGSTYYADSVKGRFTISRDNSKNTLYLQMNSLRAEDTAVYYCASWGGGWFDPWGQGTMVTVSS
VL: B1 VL with L97D, P98H
notes: His-tagged purified scFv; also called 37 / 277
B27: scFv variant of 129-1c4 with VH CDR3 SEQ ID NO: 37 and VL CDR3 SEQ ID NO: 304 (scFv, V domains shown)
VH: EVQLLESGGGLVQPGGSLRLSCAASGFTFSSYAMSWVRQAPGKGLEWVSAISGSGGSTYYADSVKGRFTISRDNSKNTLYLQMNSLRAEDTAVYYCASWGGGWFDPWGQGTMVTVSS
VL: B1 VL with L97P, P98V, W99F, V100N
notes: His-tagged purified scFv; also called 37 / 304
B28: scFv variant of 129-1c4 with VH CDR3 SEQ ID NO: 37 and VL CDR3 SEQ ID NO: 297 (scFv, V domains shown)
VH: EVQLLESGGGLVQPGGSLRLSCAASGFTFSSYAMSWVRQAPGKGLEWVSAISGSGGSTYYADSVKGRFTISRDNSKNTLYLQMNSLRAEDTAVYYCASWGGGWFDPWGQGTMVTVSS
VL: B1 VL with G96S, L97A, P98H, W99F
notes: His-tagged purified scFv; also called 37 / 297
B29: scFv variant of 129-1c4 with VH CDR3 SEQ ID NO: 37 and VL CDR3 SEQ ID NO: 261 (scFv, V domains shown)
VH: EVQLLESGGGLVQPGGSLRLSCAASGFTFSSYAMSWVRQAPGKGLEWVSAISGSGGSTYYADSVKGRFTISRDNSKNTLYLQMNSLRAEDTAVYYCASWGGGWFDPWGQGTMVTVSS
VL: B1 VL with G96Q, L97I, V100A
notes: His-tagged purified scFv; also called 37 / 261
B30: scFv variant of 129-1c4 with VH CDR3 SEQ ID NO: 37 and VL CDR3 SEQ ID NO: 299 (scFv, V domains shown)
VH: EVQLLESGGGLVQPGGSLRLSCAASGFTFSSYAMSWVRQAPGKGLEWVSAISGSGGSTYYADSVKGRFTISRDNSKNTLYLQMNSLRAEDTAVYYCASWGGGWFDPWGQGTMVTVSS
VL: B1 VL with G96D, L97R, P98A, W99F, V100N
notes: His-tagged purified scFv; also called 37 / 299

Target: T1, human P-cadherin on the surface of cells (human, UniProt P22223 108-829)
Assay: cell-based or functional assay

Binder | A431 Adhesion Assay Mean IC50 (nM) (n = 3)
B1 | 0.217
B2 | 0.114
B3 | 0.229
B4 | 0.168
B5 | 0.149
B6 | 0.08
B7 | 0.158
B8 | 0.097
B9 | 0.117
B10 | 0.147
B11 | 0.148
B12 | 0.162
B13 | 0.114

Target: T1, human P-cadherin on the surface of cells
Assay: cell-based or functional assay
Remark: another data set of the same source

Binder | A431 Adhesion Assay Mean IC50 (nM) (n = 2)
B2 | 0.97
B3 | 2.1
B4 | 0.63
B5 | 0.39
B7 | 0.73
B14 | 0.77
B15 | 1.05
B12 | 0.46

Target: T1, human P-cadherin on the surface of cells
Assay: cell-based or functional assay
Remark: another data set of the same source

Binder | SW480 Aggregation Assay Mean IC50 [nM]
B1 | 1.1
B6 | 1.5
B8 | 2.9
B9 | 1.9
B15 | 0.9
B10 | 1.3
B11 | 3.2
B12 | 0.7
B13 | 1.7

Target: T1, human P-cadherin on the surface of cells
Assay: cell-based or functional assay
Remark: another data set of the same source

Binder | SW480 Spheroid Disruption Assay, Fold Increased Disruption vs Control at 5 nM [fold]
B1 | 10
B6 | 10
B8 | 13
B9 | 10
B15 | 13
B10 | 16
B11 | 10
B13 | 10

Target: T2, Recombinant human P-cadherin Fc (R&D Systems 861-PC-100) (human, UniProt P22223 108-654)
T2 construct: also called recombinant human P-cadherin/Fc fusion protein; hCad/Fc; not shown: Fc part of the bought fusion protein
Assay: ELISA on coated antigen, relative KD

Binder | Kd [nM]
B1 | 0.116
B6 | 0.045
B8 | 0.078
B14 | 0.191
B9 | 0.062
B15 | 0.449
B10 | 0.112
B11 | 0.102
B13 | 0.12

Target: T3, recombinant human E-cadherin (R&D Systems 648-EC-100) (human, UniProt P12830 155-707)
T3 construct: Bought protein
T3 sequence (looked up): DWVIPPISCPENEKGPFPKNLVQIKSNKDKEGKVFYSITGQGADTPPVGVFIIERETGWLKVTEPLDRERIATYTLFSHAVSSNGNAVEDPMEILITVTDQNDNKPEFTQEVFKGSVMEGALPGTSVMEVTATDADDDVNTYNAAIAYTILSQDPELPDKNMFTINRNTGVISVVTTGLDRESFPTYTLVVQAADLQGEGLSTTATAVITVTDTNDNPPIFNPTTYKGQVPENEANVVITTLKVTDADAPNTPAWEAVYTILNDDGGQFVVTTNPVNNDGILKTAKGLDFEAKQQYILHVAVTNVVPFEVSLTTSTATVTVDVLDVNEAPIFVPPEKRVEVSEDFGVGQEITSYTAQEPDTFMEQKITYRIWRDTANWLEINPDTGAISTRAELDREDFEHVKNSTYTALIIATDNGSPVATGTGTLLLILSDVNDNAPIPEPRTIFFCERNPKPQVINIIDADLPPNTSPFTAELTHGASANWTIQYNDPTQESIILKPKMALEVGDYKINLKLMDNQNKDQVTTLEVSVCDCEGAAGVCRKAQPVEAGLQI
Assay: ELISA on coated antigen, relative KD

Binder | Kd [nM]
B1 | 0.682
B6 | 0.063
B8 | 19.4
B14 | 0.794
B9 | 0.187
B15 | 7.51
B10 | 20.5
B13 | 11.5

Target: T2, Recombinant human P-cadherin Fc (R&D …)
Assay: ELISA; KD on E-cadherin over KD on P-cadherin

Binder | KD(E)/KD(P)
B1 | 6
B6 | 1.4
B8 | 249
B14 | 4
B9 | 3
B15 | 17
B10 | 183
B11 | 326
B13 | 96

Target: T1, human P-cadherin on the surface of cells
Assay: epitope competition on A431 cells; competitor: biotinylated 129-1c4 IgG at 1x KD, DELFIA

Binder | IC50 [nM]
B16 | 2.49
B17 | 10.5
B18 | 1.47
B19 | 8.73
B20 | 5.67
B21 | 5.11
B22 | 1.29
B23 | 0.8
B24 | 6.67
B25 | 2.19
B26 | 2.2
B27 | 1.1
B28 | 2.49
B29 | 1.78
B30 | 1.97
